Assay results reported in paper PMC9465349, “G protein–coupled receptor kinase phosphorylation of distal C-tail sites specifies βarrestin1-mediated signaling by chemokine receptor CXCR4” (The Journal of Biological Chemistry, 2022).

B1: βarrestin1-GFP10 (natural protein, UniProt P49407 1-418, looked up)
chain: MGDKGTRVFKKASPNGKLTVYLGKRDFVDHIDLVDPVDGVVLVDPEYLKERRVYVTLTCAFRYGREDLDVLGLTFRKDLFVANVQSFPPAPEDKKPLTRLQERLIKKLGEHAYPFTFEIPPNLPCSVTLQPGPEDTGKACGVDYEVKAFCAENLEEKIHKRNSVRLVIRKVQYAPERPGPQPTAETTRQFLMSDKPLHLEASLDKEIYYHGEPISVNVHVTNNTNKTVKKIKISVRQYADICLFNTAQYKCPVAMEEADDTVAPSSTFCKVYTLTPFLANNREKRGLALDGKLKHEDTNLASSTLLREGANREILGIIVSYKVKVKLVVSRGGLLGDLASSDVAVELPFTLMHPKPKEEPPHREVPENETPVDTNLIELDTNDDDIVFEDFARQRLKGMKDDKEEEEDGTGSPQLNNR
notes: βarrestin1 (βarr1); plasmid a gift from Michel Bouvier; Gift plasmid; also called βarr1-GFP; βarr1-GFP^10; source: HEK293, transiently transfected (PEI), in live cells
B2: STAM1 (signal-transducing adaptor molecule 1) tagged at the N terminus with Rluc8 (natural protein, UniProt Q92783 1-540, looked up)
chain: MPLFATNPFDQDVEKATSEMNTAEDWGLILDICDKVGQSRTGPKDCLRSIMRRVNHKDPHVAMQALTLLGACVSNCGKIFHLEVCSRDFASEVSNVLNKGHPKVCEKLKALMVEWTDEFKNDPQLSLISAMIKNLKEQGVTFPAIGSQAAEQAKASPALVAKDPGTVANKKEEEDLAKAIELSLKEQRQQSTTLSTLYPSTSSLLTNHQHEGRKVRAIYDFEAAEDNELTFKAGEIITVLDDSDPNWWKGETHQGIGLFPSNFVTADLTAEPEMIKTEKKTVQFSDDVQVETIEPEPEPAFIDEDKMDQLLQMLQSTDPSDDQPDLPELLHLEAMCHQMGPLIDEKLEDIDRKHSELSELNVKVMEALSLYTKLMNEDPMYSMYAKLQNQPYYMQSSGVSGSQVYAGPPPSGAYLVAGNAQMSHLQSYSLPPEQLSSLSQAVVPPSANPALPSQQTQAAYPNTMVSSVQGNTYPSQAPVYSPPPAATAAAATADVTLYQNAGPNMPQVPNYNLTSSTLPQPGGSQQPPQPQQPYSQKALL
notes: STAM1 (signal-transducing adaptor molecule 1); the plasmid holds 'the STAM1-coding region' in pcDNA3; New plasmid; Rluc8 fragment from pTRE-Tight-Rluc8 (Addgene 79844); also called Rluc8-STAM1; RLuc8-STAM1; source: HEK293, transiently transfected (PEI), in live cells; not shown: Rluc8, N-terminal, kept

What was measured:
Settings in all cases: partners not purified
CXCR4-Rluc3 [1] = target: T1, CXCR4-Rluc3 (UniProt P61073 1-352); test: FRET or BRET; as a13 for CXCR4-Rluc3 and βarr1-GFP, but in the presence of 30 μM GRK2/3 inhibitor compound 101
T1 construct: chemokine receptor CXCR4; plasmid a gift from Nikolaus Heveker; Gift plasmid; also called Rluc3-tagged CXCR4; source: HEK293, transiently transfected (PEI), in live cells
T1 sequence (P61073 whole entry): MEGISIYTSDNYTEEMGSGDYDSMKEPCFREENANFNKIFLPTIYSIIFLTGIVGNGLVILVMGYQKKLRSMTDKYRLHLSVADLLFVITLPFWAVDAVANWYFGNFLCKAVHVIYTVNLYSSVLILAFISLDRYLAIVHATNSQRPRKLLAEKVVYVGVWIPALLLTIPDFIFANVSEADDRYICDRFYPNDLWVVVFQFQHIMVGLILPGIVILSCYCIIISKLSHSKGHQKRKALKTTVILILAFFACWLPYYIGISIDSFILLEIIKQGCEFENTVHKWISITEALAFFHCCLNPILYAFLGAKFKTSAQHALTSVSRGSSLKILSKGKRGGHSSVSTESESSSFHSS

[2] = target: T2, NTS1-Rluc8 (neurotensin receptor 1) (UniProt P30989 1-418); test: FRET or BRET; BRET2 in live HEK293 cells coexpressing a GPCR tagged with Rluc (CXCR4-Rluc3, or GPCR-Rluc8; donor) and βarr1-GFP10 (acceptor); increasing concentrations of the receptor's agonist at 37 °C; vehicle or 1 μM Gö6983 (little effect, CXCR4)
T2 construct: neurotensin receptor 1 (NTS1); 'the NTS1-coding region' amplified by PCR from the NTS1-Tango plasmid; New plasmid; source: HEK293, transiently transfected (PEI), in live cells
T2 sequence (P30989 whole entry): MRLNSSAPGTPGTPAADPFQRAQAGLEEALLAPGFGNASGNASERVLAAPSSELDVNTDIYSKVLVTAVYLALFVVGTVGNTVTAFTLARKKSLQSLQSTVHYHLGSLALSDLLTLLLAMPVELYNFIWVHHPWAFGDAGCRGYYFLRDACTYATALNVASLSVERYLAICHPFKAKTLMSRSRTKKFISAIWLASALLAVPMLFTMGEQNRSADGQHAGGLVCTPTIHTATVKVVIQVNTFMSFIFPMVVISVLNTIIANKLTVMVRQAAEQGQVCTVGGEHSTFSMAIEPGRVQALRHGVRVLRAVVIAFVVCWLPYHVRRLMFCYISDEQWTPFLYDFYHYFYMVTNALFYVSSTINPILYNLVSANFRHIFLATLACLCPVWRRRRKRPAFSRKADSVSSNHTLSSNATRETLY

CXCR4-Rluc3 [3] = target: T1, CXCR4-Rluc3; test: as above
βarrestin1-GFP10 [4] = target: B1; test: FRET or BRET; BRET2 in live HEK293 cells coexpressing FLAG-AT1a, Rluc8-STAM1 and βarr1-GFP; increasing concentrations of angiotensin II, 10 min, 37 °C
βarrestin1-GFP10 [5] = target: B1; test: FRET or BRET; BRET2 in live HEK293 cells coexpressing FLAG-NTS1, Rluc8-STAM1 and βarr1-GFP; increasing concentrations of neurotensin, 10 min, 37 °C

Binder | EC50 of the agonist CXCL12 for the BRET response (with GRK2/3 inhibitor compound 101) (CXCR4-Rluc3 [1]) [nM] | potency (EC50) of the agonist neurotensin for the BRET response [2] [nM] | EC50 of the agonist CXCL12 for the BRET response (vehicle) (CXCR4-Rluc3 [3]) [nM] | potency (EC50) of the agonist angiotensin II for the BRET response (βarrestin1-GFP10 [4]) [nM] | potency (EC50) of the agonist neurotensin for the BRET response (βarrestin1-GFP10 [5]) [nM]
B1 | 7.79 | 0.13 | 0.3 | – | –
B2 | – | – | – | 70 | 0.22
